Molecular target: Nogo receptor (NgR)
Assay: cell-based or functional assay

Row | neurite outgrowth of cerebellar neurons on MAG-expressing CHO cells, peptide at 15 uM (FIG. 4) [fold] | Binder
1 | 2 | AAARDTVQCLCVVKSNPEPSVAFELPSRNV [MAG peptide MAG(422-451)]
2 | 2 | VAFELPSRNVTVNETEREFVYSERSGLLLT [MAG peptide MAG(442-471)]

— patent publication US20040121341A1 (RESEARCH FOUNDATION OF CITY UNIVERSITY OF NEW YORK, published 2004)
